This note sets out measurements from article PMC5342210, “Staphylococcal protein Ecb impairs complement receptor-1 mediated recognition of opsonized bacteria” (PLoS ONE, 2017).

Test [1] addresses C3b (UniProt P01024). The experiment in a line: radioligand binding; C3b (5 ug/ml) coated on microtiter wells, blocked with 0.5% BSA; 125I-sCR1 (30,000 cpm) mixed with the unlabelled protein (0-0.33 uM) in 1/2 PBS with 0.1% BSA; 60 min, 37 C; bound radioactivity counted.
Target sequence in this assay (P01024 23-667, chain 1 of 2): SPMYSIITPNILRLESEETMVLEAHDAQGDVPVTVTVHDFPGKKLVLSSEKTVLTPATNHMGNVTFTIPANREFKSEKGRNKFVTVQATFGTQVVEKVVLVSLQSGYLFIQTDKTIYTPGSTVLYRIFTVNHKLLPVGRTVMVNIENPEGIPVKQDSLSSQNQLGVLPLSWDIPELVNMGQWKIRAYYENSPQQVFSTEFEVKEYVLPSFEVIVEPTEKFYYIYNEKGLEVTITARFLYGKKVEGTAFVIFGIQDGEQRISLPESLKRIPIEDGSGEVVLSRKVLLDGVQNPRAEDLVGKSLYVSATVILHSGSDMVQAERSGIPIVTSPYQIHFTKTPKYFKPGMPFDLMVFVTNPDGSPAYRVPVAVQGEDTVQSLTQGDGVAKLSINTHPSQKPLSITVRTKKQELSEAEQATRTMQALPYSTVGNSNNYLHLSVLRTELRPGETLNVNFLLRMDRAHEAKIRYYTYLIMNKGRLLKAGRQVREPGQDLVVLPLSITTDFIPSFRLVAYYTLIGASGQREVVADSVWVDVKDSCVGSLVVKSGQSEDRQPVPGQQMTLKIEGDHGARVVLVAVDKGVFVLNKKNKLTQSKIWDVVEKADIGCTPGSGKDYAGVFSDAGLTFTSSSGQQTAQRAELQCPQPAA
Target sequence in this assay (P01024 749-1663, chain 2 of 2): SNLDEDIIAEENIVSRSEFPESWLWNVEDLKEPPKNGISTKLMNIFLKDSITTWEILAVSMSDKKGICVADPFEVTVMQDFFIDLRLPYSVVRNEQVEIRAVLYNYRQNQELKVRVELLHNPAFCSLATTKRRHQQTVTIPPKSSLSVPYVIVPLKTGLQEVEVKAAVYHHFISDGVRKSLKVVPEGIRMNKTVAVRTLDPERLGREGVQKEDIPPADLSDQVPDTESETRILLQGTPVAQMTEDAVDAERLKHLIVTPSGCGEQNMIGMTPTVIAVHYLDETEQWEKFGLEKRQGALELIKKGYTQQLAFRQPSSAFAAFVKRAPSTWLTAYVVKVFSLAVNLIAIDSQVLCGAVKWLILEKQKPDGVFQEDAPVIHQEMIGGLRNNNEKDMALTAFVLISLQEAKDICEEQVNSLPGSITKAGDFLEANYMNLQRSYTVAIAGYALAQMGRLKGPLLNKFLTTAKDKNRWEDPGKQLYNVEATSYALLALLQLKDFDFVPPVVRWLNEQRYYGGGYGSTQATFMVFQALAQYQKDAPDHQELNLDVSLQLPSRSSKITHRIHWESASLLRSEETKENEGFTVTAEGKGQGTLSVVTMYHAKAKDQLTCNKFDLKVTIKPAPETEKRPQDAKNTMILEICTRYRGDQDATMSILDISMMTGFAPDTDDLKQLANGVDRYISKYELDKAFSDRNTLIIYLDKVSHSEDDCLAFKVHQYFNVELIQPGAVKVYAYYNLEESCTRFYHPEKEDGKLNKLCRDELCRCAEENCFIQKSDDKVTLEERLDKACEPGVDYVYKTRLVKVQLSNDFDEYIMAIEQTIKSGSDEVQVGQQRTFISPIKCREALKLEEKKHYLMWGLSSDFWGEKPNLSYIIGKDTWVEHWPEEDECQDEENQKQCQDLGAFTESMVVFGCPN
For test [2], the target named is T1, C3b (UniProt P01024).
T1 construct: complement C3 beta chain, as it stands in C3b; alpha'-chain of C3b, the cut product of the C3 alpha chain (here made with trypsin); the C3b was detected with anti-human C3 and anti-human C3c antibodies; also called solid-phase C3b; source: C3 purified from plasma; C3b prepared from C3 using trypsin
Described as above. The conditions noted are these: both partners purified.
T1 sequence (P01024 23-667, chain 1 of 2): as the sequence (P01024 23-667, chain 1 of 2) above
T1 sequence (P01024 749-1663, chain 2 of 2): as the sequence (P01024 749-1663, chain 2 of 2) above

As for “Extracellular complement binding protein (Ecb) (natural protein)”, the percent inhibition of sCR1 binding to C3b with C3b [1] worked out at 80%.

B1: Factor H (FH) (natural protein)
chain: EDCNELPPRRNTEILTGSWSDQTYPEGTQAIYKCRPGYRSLGNVIMVCRKGEWVALNPLRKCQKRPCGHPGDTPFGTFTLTGGNVFEYGVKAVYTCNEGYQLLGEINYRECDTDGWTNDIPICEVVKCLPVTAPENGKIVSSAMEPDREYHFGQAVRFVCNSGYKIEGDEEMHCSDDGFWSKEKPKCVEISCKSPDVINGSPISQKIIYKENERFQYKCNMGYEYSERGDAVCTESGWRPLPSCEEKSCDNPYIPNGDYSPLRIKHRTGDEITYQCRNGFYPATRGNTAKCTSTGWIPAPRCTLKPCDYPDIKHGGLYHENMRRPYFPVAVGKYYSYYCDEHFETPSGSYWDHIHCTQDGWSPAVPCLRKCYFPYLENGYNQNYGRKFVQGKSIDVACHPGYALPKAQTTVTCMENGWSPTPRCIRVKTCSKSSIDIENGFISESQYTYALKEKAKYQCKLGYVTADGETSGSITCGKDGWSAQPTCIKSCDIPVFMNARTKNDFTWFKLNDTLDYECHDGYESNTGSTTGSIVCGYNGWSDLPICYERECELPKIDVHLVPDRKKDQYKVGEVLKFSCKPGFTIVGPNSVQCYHFGLSPDLPICKEQVQSCGPPPELLNGNVKEKTKEEYGHSEVVEYYCNPRFLMKGPNKIQCVDGEWTTLPVCIVEESTCGDIPELEHGWAQLSSPPYYYGDSVEFNCSESFTMIGHRSITCIHGVWTQLPQCVAIDKLKKCKSSNLIILEEHLKNKKEFDHNSNIRYRCRGKEGWIHTVCINGRWDPEVNCSMAQIQLCPPPPQIPNSHNMTTTLNYRDGEKVSVLCQENYLIQEGEEITCKDGRWQSIPLCVEKIPCSQPPQIEHGTINSSRSSQESYAHGTKLSYTCEGGFRISEENETTCYMGKWSSPPQCEGLPCKSPPEISHGVVAHMSDSYQYGEEVTYKCFEGFGIDGPAIAKCLGEKWSHPPSCIKTDCLSLPSFENAIPMGEKKDVYKAGEQVTYTCATYYKMDGASNVTCINSRWTGRPTCRDTSCVNPPTVQNAYIVSRQMSKYPSGERVRYQCRSPYEMFGDEEVMCLNGNWTEPPQCKDSTGKCGPPPPIDNGDITSFPLSVYAPASSVEYQCQNLYQLEGNKRITCRNGQWSEPPKCLHPCVISREIMENYNIALRWTAKQKLYSRTGESVEFVCKRGYRLSSRSHTLRTTCWDGKLEYPTCAKR
notes: complement factor H, plasma regulator; source: purified from plasma
As to B1, the binding result in the test with C3b [2] is reported as “binds”.
